Measured values from publication PMC9886975, “Ligand recognition mechanism of the human relaxin family peptide receptor 4 (RXFP4)” (Nature Communications, 2023).
Ends that are not written are not given here.

How the values were obtained:
[1] = tested on: RXFP4; details: R23^BA ref 34; R23^BE ref 35; cited from earlier work
Description: Despite these advances, difficulties in obtaining sufficient quantities of native INSL5 hampered our efforts in further exploring the biology of the peptide and its cognate receptor. […] In addition to peptidic analogs, small molecule modulators have been reported in recent years. […] The N-terminal residues (R5^B to L9^B) adopted a loop that is clasped by a short N-terminal α-helix of the A chain through one disulfide bond (C8^A‒C7^B). W24^B contributed massive polar and nonpolar interactions to stabilize the peptide binding via both side chain indole and the carboxylic acid group. The former made a hydrogen bond with T121^3.32 (superscripts denote Ballesteros–Weinstein numbering[32]), as well as cation- ...

[2] = target: T1, human RXFP4 stably expressed on CHO-K1 cells (hRXFP4-CHO) (human, UniProt Q8TDU9 1-374); test: competitive binding of a europium-labelled ligand on cells (time-resolved fluorescence); CHO-K1 cells stably transfected with RXFP4 on poly-L-lysine 96-well plates; 5 nM Eu-R3/I5 with increasing amounts of ligand; one-site binding curve; details: one partner purified
T1 construct: relaxin family peptide receptor 4 (RXFP4), human, on stably transfected CHO-K1 cells; source: CHO-K1 cells, stably transfected, on cells

[3] = target: human RXFP4 H299A mutant (human) (UniProt Q8TDU9)
[4] = target: T1, human RXFP4 stably expressed on CHO-K1 …; test: cell-based or functional assay

T1 sequence (Q8TDU9 whole entry): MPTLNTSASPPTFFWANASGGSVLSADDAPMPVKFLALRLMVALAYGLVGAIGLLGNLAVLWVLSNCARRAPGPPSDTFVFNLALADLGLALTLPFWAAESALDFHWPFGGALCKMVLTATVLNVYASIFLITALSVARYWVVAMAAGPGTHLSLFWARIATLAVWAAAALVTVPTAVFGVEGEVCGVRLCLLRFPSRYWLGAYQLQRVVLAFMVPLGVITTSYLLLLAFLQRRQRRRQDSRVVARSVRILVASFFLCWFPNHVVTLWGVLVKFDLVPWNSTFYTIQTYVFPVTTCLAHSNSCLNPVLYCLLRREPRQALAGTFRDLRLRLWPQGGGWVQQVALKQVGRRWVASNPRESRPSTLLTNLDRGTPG
Sequence of human RXFP4 H299A mutant (human) (Q8TDU9 whole entry H299A): as the sequence (Q8TDU9 whole entry) above, with H299A counted along it

| Molecule | potency of R23^B mutant vs INSL5 [1] | pKi [2] | INSL5-induced cAMP response in HEK293T cells transfected with the mutant receptor: reduction of Emax against wild type [3] [%] | inhibition of forskolin-induced cAMP responses in CHO-K1 cells stably transfected with RXFP4 (pEC50) [4] |
| --- | --- | --- | --- | --- |
| R23^BA: INSL5 with R23^B replaced by alanine (Insulin-like peptide INSL5 B … KESVRLCGLEYIRTVIYICASSAW; Insulin-like peptide INSL5 A … QDLQTLCCTDGCSMTDLSALC; disulfide (positions not given here); ends not checked; also: three disulfide bonds, places not given here; UniProt Q9Y5Q6 23-46; Q9Y5Q6 115-135, looked up, variant R23A) | reduced potencies | – | – | – |
| recombinant two-chain human insulin-like peptide 5 (INSL5) (ligand) chain 1: QDLQTLCCTDGCSMTDLSALC chain 2: KESVRLCGLEYIRTVIYICASSRW | – | 8.19 | 70 | 8.8 |
